One molecule from patent US20260234260A1 (EUCURE BEIJING BIOPHARMA, published 2026) can be followed below.

The target of assay [1] is T1, human CD40/TNFRSF5 Protein, His Tag (ACRO Biosystems Cat #CD0-H5228) (human, UniProt P25942 21-193).
T1 construct: Bought protein; also called hCD40; human CD40 protein; not shown: His tag
Kind of assay: SPR (Biacore), hCD40. The method, then:
The binding affinity to human […] (hCD40) was determined by Biacore systems.

For assay [2], the target named is T2, human CD40 expressed on Jurkat-Luc-hCD40 reporter cells (human, UniProt P25942 21-277). Kind of assay: cell-based or functional assay.
The target in assay [3] is T2, human CD40 expressed on …. Kind of assay: cell-based or functional assay. This is another data set of the same source.
In assay [4] the target is T2, human CD40 expressed on …. The experiment in a line: cell-based or functional assay. The source holds these as a separate data set.
The target of assay [5] is T2, human CD40 expressed on …. The experiment in a line: cell-based or functional assay. This is another data set of the same source.
The target in assay [6] is T2, human CD40 expressed on …. The experiment in a line: cell-based or functional assay. This is another data set of the same source.
The target of assay [7] is T1, human CD40/TNFRSF5 Protein, His Tag …. The experiment in a line: SPR (Biacore), antibody captured, His-tagged hCD40 in solution.

Like-named read-outs stand apart in the source and are kept apart here.

T1 sequence (P25942 21-193 limits assumed): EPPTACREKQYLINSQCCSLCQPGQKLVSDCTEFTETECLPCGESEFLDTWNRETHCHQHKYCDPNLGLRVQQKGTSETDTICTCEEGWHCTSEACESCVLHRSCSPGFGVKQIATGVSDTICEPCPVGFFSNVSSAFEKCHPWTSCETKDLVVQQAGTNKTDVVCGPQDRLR
T2 sequence (P25942 21-277 limits assumed): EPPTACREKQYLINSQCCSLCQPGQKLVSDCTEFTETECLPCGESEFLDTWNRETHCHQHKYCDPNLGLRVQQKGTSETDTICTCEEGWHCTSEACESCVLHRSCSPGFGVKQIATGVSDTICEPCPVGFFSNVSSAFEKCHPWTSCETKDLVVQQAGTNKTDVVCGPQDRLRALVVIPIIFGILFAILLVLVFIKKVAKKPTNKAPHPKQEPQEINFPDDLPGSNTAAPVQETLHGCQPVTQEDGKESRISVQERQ

B1: anti-CD40 monoclonal antibody 6A7-H4K2-IgG2 (antibody, V domains shown)
VH: QVQLVQSGAEVKKPGASVKLSCKASGYTFISYYIYWVKQAPGQGLEWIGGINPRNGGTNFNEKFKSRATLTVDTSISTAYMELSRLRSEDTAVYYCTRHGNGVYWGQGTTLTVSS
VL: DVVMTQSPLSLPVTLGQPASISCRSSQSLLHSNGNTYLHWYQQRPGQSPNHLIYQVSNRFSGVPDRFSGSGSGTDFTLKISRVEAEDVGVYFCSQTTHVPWTFGGGTKVEIK
notes: IgG2; also called CD40 (6A7-H4K2-IgG2); C40 (6A7-H4K2-IgG2)
As for B1, the Kd in assay [1] and in assay [7] was 3.06 nM each time. Besides, the koff in assay [1] and in assay [7] was 0.000322 s⁻¹ each time. Further, the kon in assay [1] and in assay [7] was 105000 M⁻¹ s⁻¹ each time. Besides, the “EC50 Value (ug/ml), luminescence of Jurkat-Luc-hCD40 reporter cells in the presence of CHO-K1-hFcγRIIB basal cells” value in assay [2] was found to be 0.0203 µg/mL. In addition, the “EC50 Value (ug/ml), luminescence of Jurkat-Luc-hCD40 reporter cells in the presence of Jurkat-hPD1 basal cells” value in assay [3] is 0.0089 µg/mL. In addition, the “EC50 (read off the curve), luciferase Rlu, Jurkat-Luc-hCD40 reporter cells, no basal cells” value in assay [4] was ~0.3 µg/mL. For the same molecule, the “EC50 (read off the curve), luciferase Rlu, Jurkat-Luc-hCD40 reporter cells with CHO-K1-hFcγRIIB basal cells” value in assay [5] is ~0.01 µg/mL; in assay [6] it was ~0.02 µg/mL.
